# From US20020061531, “Detection of binding factors with fluorescence polarization” (published 2002)
# Read-outs that look alike come from different tables or passages of the source.
# B1: RT 12 aptamer (ssDNA)
# DNA: ATCTACTGGATTAGCGATACTCGATTAGGTCCCCTGCCGCTAAACCATACCGCGGTAACTTGAGCAAAATCACCACTGCAGGGG
# B2: trp operator 25 bp (dsDNA)
# DNA 1: ATCGAACTAGTTAACTAGTACGCAA
# DNA 2: TTGCGTACTAGTTAACTAGTTCGAT
# B3: RT 26 aptamer (ssDNA)
# DNA: ATCCGCCTGATTAGCGATACTTACGTGAGCGTGCTGTCCCCTAAAGGTGATACGTCACTTGAGCAAAATCACCTGCAGGGG
# Assays:
# SSB protein [1] = biological target: T1, SSB protein (UniProt P0AGE0 P0AGE0:2-178); test: FP; CE/LIFP anisotropy 0.05 to 0.25; 25 mM Na2B4O7 pH 9.1; conditions: tags: Sigma; unlabeled; chain copies: tetramer (stated); label: fluorescein
# SSB protein [2] = biological target: T1, SSB protein; test: CE mobility; 25 mM Na2B4O7 pH 9.1, SSB in running buffer; Hill fit; conditions: tags: Sigma; unlabeled; chain copies: tetramer (stated); label: fluorescein
# [3] = biological target: T2, HIV-1 reverse transcriptase (p66/p51) (Human immunodeficiency virus 1, UniProt P04585;P04585 P04585:588-1147,P04585:588-1027); test: CE/LIF; two complex peaks; lower binding constant than RT 26; 1xTBE; conditions: tags: Worthington Biochemicals; chain copies: heterodimer (stated)
# SSB protein [4] = biological target: T1, SSB protein; test: FP; 1:1 complex; mobility and anisotropy gave similar values; 2:1 complex also seen; A=0.23; conditions: tags: Sigma; unlabeled; chain copies: tetramer (stated); label: fluorescein
# trp repressor = trp repressor (Escherichia coli, UniProt P0A881 P0A881:2-108); test: FP; CE/LIFP polarization 0.11 free to 0.25 with repressor; trp binding buffer pH 7.6
# [5] = biological target: MMLV reverse transcriptase (Moloney murine leukemia virus, UniProt P03355 P03355:660-1330)
# [6] = biological target: T2, HIV-1 reverse transcriptase (p66/p51)
# [7] = biological target: SSB protein, FITC-labeled (UniProt P0AGE0 P0AGE0:2-178); test: CE mobility shift of FITC-SSB, anisotropy change only ~0.02; pH 9.1; conditions: tags: FITC (5.3 dye per protein), Sigma; chain copies: tetramer (stated)
# Chain of SSB protein, FITC-labeled (P0AGE0 2-178, one chain of several): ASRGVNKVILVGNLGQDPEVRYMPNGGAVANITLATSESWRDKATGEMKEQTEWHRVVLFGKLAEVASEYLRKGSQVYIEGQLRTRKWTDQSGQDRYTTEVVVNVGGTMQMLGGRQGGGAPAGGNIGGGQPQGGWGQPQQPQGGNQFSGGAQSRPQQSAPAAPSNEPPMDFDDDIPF
# T1 sequence (P0AGE0 2-178, one chain of several): as above
binder,measurement,setting,value
CGCGATACGCC (ssDNA) [F-11-mer],Ka,SSB protein [1],~5e+06 M⁻¹
same,Ka,SSB protein [2],~4.4e+06 M⁻¹
B1,binding result,[3],binds
CCTTAAGCTTCCTCAACCACTTACCATACTCGAGATT (ssDNA) [F-37-mer],Ka,SSB protein [4],~2e+07 M⁻¹
B2,binding result,trp repressor,binds
B3,binding result,[5],no binding
same,binding result,[6],binds
TTTTTTTTTTTTTTTTTT (ssDNA) [d(pT)18],binding result,[7],binds
